Data on eight molecules can be found in patent US20170129954A1 (PROTHENA BIOSCIENCES, published 2017).

Changes are numbered by the printed parent chain. Names may count otherwise.

One assay has as its target laminin α-4 (UniProt Q16363 25-1823). Nature of the assay: FACS on mammalian cells displaying the mutant. An excerpt: Twenty point mutants based on the structure information and shotgun mutagenesis information were designed and generated.
Assay [1] has as its target T1, human MCAM (antigen of the BLI kinetics in Example 7) (human, UniProt P43121 24-559, limits assumed).
T1 chain: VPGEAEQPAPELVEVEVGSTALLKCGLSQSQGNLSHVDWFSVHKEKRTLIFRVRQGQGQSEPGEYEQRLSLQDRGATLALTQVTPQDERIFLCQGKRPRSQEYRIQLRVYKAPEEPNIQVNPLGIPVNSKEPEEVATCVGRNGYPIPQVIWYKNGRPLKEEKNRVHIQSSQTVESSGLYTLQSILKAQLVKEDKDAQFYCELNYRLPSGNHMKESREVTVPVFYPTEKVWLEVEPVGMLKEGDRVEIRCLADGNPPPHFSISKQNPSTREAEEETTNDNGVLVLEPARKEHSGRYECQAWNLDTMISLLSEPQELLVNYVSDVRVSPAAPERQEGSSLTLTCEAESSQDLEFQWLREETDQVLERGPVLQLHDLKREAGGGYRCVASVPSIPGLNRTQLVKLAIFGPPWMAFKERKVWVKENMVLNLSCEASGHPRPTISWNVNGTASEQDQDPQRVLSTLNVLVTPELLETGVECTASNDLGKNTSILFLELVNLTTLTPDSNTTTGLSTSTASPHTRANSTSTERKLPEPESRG
Nature of the assay: BLI, ForteBio Octet QK, apparent KD. The text has this:
(§1) Apparent ka, apparent kd and apparent KD are binding kinetic parameters obtained using ForteBio assay formats.
For orientation: Biolayer interferometry detects binding as a change in optical thickness at a sensor tip.

In assay [2] the target is T1, human MCAM (antigen of the BLI kinetics …). Kind of assay: BLI, ForteBio Octet QK, apparent ka.
From the text: as §1

Assay [3] shares this target. Kind of assay: BLI, ForteBio Octet QK, apparent kd.
From the text: as §1

Assay [4] has as its target T2, human MCAM domain 1 (amino acids 19-129) hFc (human, UniProt P43121 19-129).
T2 construct: One of the various MCAMhFc domains captured on anti-human IgG Fc biosensors; also called MCAMhFc domain; not shown: human IgG Fc (hFc)
T2 sequence: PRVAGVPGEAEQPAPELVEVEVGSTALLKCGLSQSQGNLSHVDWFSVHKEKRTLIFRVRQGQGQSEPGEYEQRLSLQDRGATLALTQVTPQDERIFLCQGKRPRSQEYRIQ
Kind of assay: ForteBio BLI, MCAMhFc domains on anti-human IgG Fc biosensors. The text has this:
(§2) The following protocol was used: ForteBio anti-human IgG Fc biosensors were used to immobilize various MCAMhFc domains including full length MCAMhFc protein on to biosensor surface. […] After loading these samples into a black 96 well plate, the Octet Red was programmed as follows: 60 seconds for baseline #1; 180 seconds for loading various domains; 60 seconds for baseline #2; 180 seconds for association of antibody to domain; and 240 seconds for dissociation of antibody from domain.
(§3) 1. MCAMhFc final concentration @ 5 ug/ml [0329] […] 3. ForteBio anti-human IgG Fc Capture (AHC) biosensors for kinetics experiments, cat #18-5060 [0331] 4. Block 96 well plate from Greiner Bio-one, cat #655209 [0332] 5. ForteBio Octet Red machine [0333] 6. Fresh tissue culture medium, DMEM with 20% FCS, was used as buffer for dilution The results from these analyses are as follows.

For assay [5], the target named is T3, human MCAM domain 2 (amino acids 139-242) hFc (human, UniProt P43121 139-242).
T3 construct: One of the various MCAMhFc domains captured on anti-human IgG Fc biosensors; also called MCAMhFc domain; not shown: human IgG Fc (hFc)
T3 sequence: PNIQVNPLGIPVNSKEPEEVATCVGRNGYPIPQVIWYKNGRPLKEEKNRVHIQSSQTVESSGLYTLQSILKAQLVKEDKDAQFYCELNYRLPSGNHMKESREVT
Described as above.
From the text: as §2, §3

The target in assay [6] is T4, combination of human MCAM domains 1 and 2 (amino acids 19-242) hFc (human, UniProt P43121 19-242).
T4 construct: One of the various MCAMhFc domains captured on anti-human IgG Fc biosensors; also called combination of domains 1 and 2; MCAMhFc domain; not shown: human IgG Fc (hFc)
T4 sequence: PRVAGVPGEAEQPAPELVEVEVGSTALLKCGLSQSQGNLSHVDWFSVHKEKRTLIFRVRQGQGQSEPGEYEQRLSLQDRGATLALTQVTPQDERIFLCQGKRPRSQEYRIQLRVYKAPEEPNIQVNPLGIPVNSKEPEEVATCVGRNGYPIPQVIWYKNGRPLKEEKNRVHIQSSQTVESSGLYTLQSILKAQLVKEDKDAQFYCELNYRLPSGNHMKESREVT
The assay is described as above.
From the text: as §2, §3

In assay [7] the target is T5, human MCAM, full length, expressed on transfected cells (human, UniProt P43121 24-646).
T5 construct: also called CD146; MUC18
T5 chain: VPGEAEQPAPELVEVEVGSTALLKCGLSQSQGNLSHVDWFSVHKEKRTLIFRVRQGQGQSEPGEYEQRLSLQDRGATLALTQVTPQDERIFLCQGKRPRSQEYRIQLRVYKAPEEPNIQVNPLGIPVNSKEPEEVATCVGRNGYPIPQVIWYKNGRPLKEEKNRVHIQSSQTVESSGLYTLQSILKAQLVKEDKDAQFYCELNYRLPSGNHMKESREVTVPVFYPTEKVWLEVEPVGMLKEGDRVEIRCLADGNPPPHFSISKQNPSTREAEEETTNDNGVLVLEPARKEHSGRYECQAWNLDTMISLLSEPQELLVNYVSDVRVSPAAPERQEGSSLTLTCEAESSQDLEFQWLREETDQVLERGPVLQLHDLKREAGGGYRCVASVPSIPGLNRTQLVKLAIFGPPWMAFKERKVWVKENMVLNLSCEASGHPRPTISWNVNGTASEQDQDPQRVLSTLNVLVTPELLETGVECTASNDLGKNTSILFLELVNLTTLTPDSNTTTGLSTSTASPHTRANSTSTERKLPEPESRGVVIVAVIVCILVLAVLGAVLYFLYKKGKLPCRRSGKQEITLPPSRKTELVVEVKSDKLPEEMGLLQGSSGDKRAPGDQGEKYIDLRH
Kind of assay: flow cytometry, blocking of recombinant human laminin 411 (20 ug/ml) binding to CHO cells expressing human MCAM. As to the method: The 87 independent mouse fusion clones and 26 independent rat fusion clones described in Example 1 above as being capable of (i) binding to human MCAM, and (ii) blocking the interaction between human MCAM and the α-4 chain of laminin were further characterized as follows. First, IC50 quantitation for the ability of the monoclonal antibody to block the binding of human MCAM to the α-4 chain of laminin was determined as follows. CHO cells expressing human MCAM were incubated with an anti-human MCAM antibody (at various concentrations) for 30 minutes at 4 degrees Celsius. […] Unbound laminin was then washed away, and the laminin bound to the surface of the cells was detected with fluorescently labeled anti-laminin antibodies. After washing, the amount of laminin bound to the surface was detected by flow cytometry, and IC50s were calculated based on the mean fluorescent intensity.
Amino acid and nucleic acid sequences of the heavy and light chains of these antibodies, and their hypervariable regions, are provided in SEQ ID NOs:29-92. […] As such, each of these specific monoclonal antibodies was very capable of binding to human MCAM and inhibiting the interaction of cell-expressed human MCAM with its α-4 laminin binding ligand.

laminin α-4, sequence (Q16363 25-1823): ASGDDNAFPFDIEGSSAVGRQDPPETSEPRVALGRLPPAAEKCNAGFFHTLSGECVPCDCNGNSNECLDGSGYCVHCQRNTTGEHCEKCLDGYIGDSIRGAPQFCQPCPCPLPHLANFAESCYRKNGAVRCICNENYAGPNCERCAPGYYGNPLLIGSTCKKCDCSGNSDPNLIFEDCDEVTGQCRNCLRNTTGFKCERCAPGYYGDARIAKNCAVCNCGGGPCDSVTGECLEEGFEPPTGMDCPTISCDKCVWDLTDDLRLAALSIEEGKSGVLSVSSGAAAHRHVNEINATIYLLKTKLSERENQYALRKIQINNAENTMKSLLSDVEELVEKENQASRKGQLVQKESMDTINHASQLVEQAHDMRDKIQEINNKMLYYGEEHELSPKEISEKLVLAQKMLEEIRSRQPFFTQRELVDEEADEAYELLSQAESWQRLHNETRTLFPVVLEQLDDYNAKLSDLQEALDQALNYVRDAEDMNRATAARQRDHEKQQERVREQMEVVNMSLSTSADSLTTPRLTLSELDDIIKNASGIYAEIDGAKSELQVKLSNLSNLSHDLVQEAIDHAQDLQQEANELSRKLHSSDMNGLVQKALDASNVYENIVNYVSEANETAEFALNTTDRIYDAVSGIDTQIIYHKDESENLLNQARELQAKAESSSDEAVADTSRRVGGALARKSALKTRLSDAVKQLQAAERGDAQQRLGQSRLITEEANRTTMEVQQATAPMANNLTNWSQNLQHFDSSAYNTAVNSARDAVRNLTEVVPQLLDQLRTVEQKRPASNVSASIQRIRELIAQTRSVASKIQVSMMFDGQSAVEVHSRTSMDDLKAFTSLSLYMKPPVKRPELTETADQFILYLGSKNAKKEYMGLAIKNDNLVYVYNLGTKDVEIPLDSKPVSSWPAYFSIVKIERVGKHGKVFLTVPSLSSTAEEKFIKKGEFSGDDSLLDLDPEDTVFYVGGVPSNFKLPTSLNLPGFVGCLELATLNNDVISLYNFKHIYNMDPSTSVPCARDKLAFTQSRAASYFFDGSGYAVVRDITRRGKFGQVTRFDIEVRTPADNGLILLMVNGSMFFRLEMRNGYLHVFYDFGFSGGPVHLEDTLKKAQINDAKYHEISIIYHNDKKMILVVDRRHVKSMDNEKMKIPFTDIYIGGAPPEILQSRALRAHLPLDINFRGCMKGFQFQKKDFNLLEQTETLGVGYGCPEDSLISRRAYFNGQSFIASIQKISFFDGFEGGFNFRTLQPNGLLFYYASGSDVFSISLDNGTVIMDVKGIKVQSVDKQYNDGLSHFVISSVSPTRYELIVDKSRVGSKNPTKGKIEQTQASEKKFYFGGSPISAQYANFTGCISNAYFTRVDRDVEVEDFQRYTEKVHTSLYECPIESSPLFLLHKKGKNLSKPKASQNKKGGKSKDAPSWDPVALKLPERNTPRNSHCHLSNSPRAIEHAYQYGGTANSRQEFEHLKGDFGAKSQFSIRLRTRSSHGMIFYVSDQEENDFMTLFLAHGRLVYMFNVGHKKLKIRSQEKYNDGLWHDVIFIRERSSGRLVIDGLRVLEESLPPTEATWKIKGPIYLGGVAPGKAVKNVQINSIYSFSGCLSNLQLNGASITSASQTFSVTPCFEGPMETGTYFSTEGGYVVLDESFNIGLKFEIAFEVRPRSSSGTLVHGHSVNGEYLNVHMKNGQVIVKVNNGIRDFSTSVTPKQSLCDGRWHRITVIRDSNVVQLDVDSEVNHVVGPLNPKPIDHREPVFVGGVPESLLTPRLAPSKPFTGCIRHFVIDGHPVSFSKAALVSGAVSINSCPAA

B1: human MCAM I141A single mutant displayed on mammalian cells (receptor)
chain: T5 chain with I118A
In the case of B1, the binding result with laminin α-4 is listed as “no binding”.

B2: Chimeric 1749 (antibody, V domains shown)
VH: DVKLVESGGDLVKPGGSLKLSCAASGFTFSSYIMSWVRQTPEKRLEWVATISSGGSSTYYPDSVKGRFTISRDNAKNTLYLQMSSLKSEDTAMYYCTRDDDYDVKVFAYWGQGTLVTVSA
VL: DIVMSQSPSSLAVSAGEKVTMNCKSSRSLLNSRIRKNYLAWYQQKPGQSPKLLIYWASTRESGVPDRFTGSGSGTDFTLTISSVQAEDLAVYYCKQSYNLLTFGAGTKLELK
notes: also called ch1749
Usually kon stands for a measure of how fast the partners come together. By koff is commonly meant the rate constant with which the complex falls apart. For the molecule B2, in assay [1], the Kd was determined as 0.226 nM. For the same molecule, the kon in assay [2] is 1.94e+06 M⁻¹ s⁻¹. The koff in assay [3] came to 0.000439 s⁻¹.

B3: mouse anti-human MCAM monoclonal antibody clone 1414.1.2 (antibody, V domains shown)
VH: EIQLQQTGPELVKPGASVKISCKASGYSFTDYIMLWVKQSHGKSLEWIGNINPYSGSSGYNLKFKGKATLTVDKSSSTAYMQLNSLTSEDSAVYYCARGKDFAMDYWGQGTSVTVSS
VL: B2 VL with N22S, R27Q, R33S, I34T, Y38F, L100R, L101Y, A105G, L111I
notes: Mouse hybridoma monoclonal antibody
What is called IC50 is the concentration at which inhibition is half-maximal. For B3, the binding result in assay [4], in assay [5] and in assay [6] was “no binding (tested: 5 ug/ml)” each time. In assay [7], the 50% inhibitory concentration (IC50) worked out at 0.431 µg/mL.

B4: Human 1749VH3VL3 (Hu1749VHv3 and Hu1749VLv3) (antibody, V domains shown)
VH: B2 VH with D1E, D10G, K13Q, K19R, A120S
VL: DIVMTQSPSSLAVSLGERVTINCKSSRSLLNSRIRKNYLAWYQQKPGQSPKLLIYWASTRESGVPDRFSGSGSGTDFTLTISSLQAEDVAVYYCKQSYNLLTFGQGTKVEIKR
notes: also called hu1749VH3VL3; hu1749H3L3
With B4, in assay [1], the Kd worked out at 0.221 nM. Also, the kon in assay [2] amounted to 1.99e+06 M⁻¹ s⁻¹. The koff in assay [3] came out at 0.00044 s⁻¹.

B5: mouse anti-human MCAM monoclonal antibody clone 1415.1.1 (antibody, V domains shown)
VH: QVQLQQPGAELVQPGAPVKLSCKASGYIFTSYWMNWVKQRPGRGLEWIGRIDPSDSKIHYNQKFKDKATLTVDRSSSTAYIQLGSLTSEDSAVYYCAKEGGLRRGDYAMDYWGQGTSVTVSS
VL: DIVMTQSPATLSVTPGDRVSLSCRASQSISDYLHWYQQKSHESPRLLIKYASQSISGIPSRFSGSGSGSDFTLSINSVEPEDVGVYYCQNGHNFPRTFGGGTKLEIK
notes: as for B3
B5: the binding result in assay [4], in assay [5] and in assay [6] was “no binding (tested: 5 ug/ml)” in each case. In assay [7], the IC50 stood at 0.307 µg/mL.

B6: rat anti-human MCAM monoclonal antibody clone 2120.4.19 (antibody, V domains shown)
VH: QVQLKESGPGLVQPSQTLSLTCTVSGFSLTSNGVSWVRQPPGKGLEWIAAISSGGTTYYNSAFKSRLSISRNTSKSQVLLKMNSLQTEDTAMYFCARRYGYGWYFDFWGPGTMVTVSS
VL: DIRMTQSPSLLSASVGDRVTLNCKASQNIYNSLAWYQQKLGEGPKVLIFNANSLQTGIPSRFSGSGSGTDFTLTISSLQPEDFATYFCQQFYSGYTFGAGTKLELK
notes: Rat hybridoma monoclonal antibody
Turning to B6, the binding result in assay [4] is given as “no binding (tested: 5 ug/ml)”. Besides, in assay [7], the IC50 came to 0.888 µg/mL.

B7: rat anti-human MCAM monoclonal antibody clone 2107.4.10 (antibody, V domains shown)
VH: QVQLKESGPGLVQSSQTLSLTCTVSGFSLTSNGVSWVRQPPGKGLEWIAAISSGGSTYYNSAFKSRLSISRNTSKSQVLLKMNSLQTEDTGMYFCARHRPFYFDYWGQGVMVTVSS
VL: DIQVTQSPSLLSASVGDRVTLNCKGSQNIYKSLAWFRLKRGEAPKLLIYDANSLQTGIPSRFSGSGSGTDFTLTITSLQPEDVATYFCQQYYSGYTFGAGTKLELK
notes: as for B6
With B7, the binding result in assay [4] is reported as “no binding (tested: 5 ug/ml)”. For the same molecule, in assay [7], the IC50 was determined as 0.29 µg/mL.

B8: mouse anti-human MCAM monoclonal antibody clone 1174.1.3 (antibody, V domains shown)
VH: QIQLVQSGPELKKPGETVKISCKASGYTFTNYGMNWVKQAPGKGLKWMGWINTYTGEPTYADDFKGRFALSLETSASTAYLQINNLKNEDMATYFCARYRYNKYERAMDYWGQGTSVTVSS
VL: DIVLTQSPASLAVSLGQRATISCRASKSVSTSGYSYMYWYQQKPGQPPKLLIYLASNLESGVPARFSGSGSGTDFTLNIHPVEEEDAATYYCQHSRELPFTFGSGTKLEIK
notes: as for B3
Take B8: the binding result in assay [4], in assay [5] and in assay [6] was “no binding (tested: 5 ug/ml)” throughout. Further, the IC50 in assay [7] worked out at 0.469 µg/mL.
